{"source": "paper PMC4661386", "biological_target": "inter-alpha-inhibitor (IαI) (human) (UniProt P19827)", "sequence (P19827 whole entry, looked up)": "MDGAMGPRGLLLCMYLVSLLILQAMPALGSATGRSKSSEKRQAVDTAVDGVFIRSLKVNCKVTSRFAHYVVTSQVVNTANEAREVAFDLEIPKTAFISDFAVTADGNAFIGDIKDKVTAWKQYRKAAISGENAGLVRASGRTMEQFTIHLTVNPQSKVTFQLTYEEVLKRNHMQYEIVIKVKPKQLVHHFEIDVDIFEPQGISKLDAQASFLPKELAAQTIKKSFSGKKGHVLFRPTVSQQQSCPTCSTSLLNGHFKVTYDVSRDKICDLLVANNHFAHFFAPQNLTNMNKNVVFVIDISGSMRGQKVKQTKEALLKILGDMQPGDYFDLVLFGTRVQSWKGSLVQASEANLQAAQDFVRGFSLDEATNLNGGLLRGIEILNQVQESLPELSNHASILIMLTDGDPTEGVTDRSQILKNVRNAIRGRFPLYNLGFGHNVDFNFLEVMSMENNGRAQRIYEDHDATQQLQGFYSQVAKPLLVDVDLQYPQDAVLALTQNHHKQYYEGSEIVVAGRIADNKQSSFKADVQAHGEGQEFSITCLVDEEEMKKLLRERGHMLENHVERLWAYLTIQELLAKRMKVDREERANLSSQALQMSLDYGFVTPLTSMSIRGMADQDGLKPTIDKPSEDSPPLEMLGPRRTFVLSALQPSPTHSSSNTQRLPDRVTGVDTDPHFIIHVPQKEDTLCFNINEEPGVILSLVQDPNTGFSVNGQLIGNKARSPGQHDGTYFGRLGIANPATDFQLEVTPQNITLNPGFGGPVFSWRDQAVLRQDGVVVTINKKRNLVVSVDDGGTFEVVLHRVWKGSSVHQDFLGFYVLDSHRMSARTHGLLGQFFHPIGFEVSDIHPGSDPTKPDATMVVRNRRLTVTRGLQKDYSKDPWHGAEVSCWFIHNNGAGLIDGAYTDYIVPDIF"}
{"substance": "Full-length human TSG-6 (rhTSG-6) E183S mutant (from UniProt P98066 18-277) (natural protein)", "values": [{"measurement": "amount of HC·TSG-6 product with added calcium ions (SDS-PAGE band intensity)", "result": "5 % of WT"}]}
